Source: patent US20200087373A1 (UNIVERSITY OF COPENHAGEN, published 2020)
Where “and” joins values, the source holds several entries; their conditions need not be identical. Equal entries are not always repeated. Ends that are not written are not given here. * marks the point of attachment. C16 diacid = O=C(O)CCCCCCCCCCCCCCC(=O)*

Legend:
[1] = molecular target: T1, human GIP receptor (human, UniProt P48546 22-466); assay: 125I-hGIP competition binding, COS-7/hGIPR, 2% HSA;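 further: nonspecific binding defined as radioligand binding to untransfected cells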
T1 construct: whole, on cells; also called hGIPR
T1 sequence (looked up): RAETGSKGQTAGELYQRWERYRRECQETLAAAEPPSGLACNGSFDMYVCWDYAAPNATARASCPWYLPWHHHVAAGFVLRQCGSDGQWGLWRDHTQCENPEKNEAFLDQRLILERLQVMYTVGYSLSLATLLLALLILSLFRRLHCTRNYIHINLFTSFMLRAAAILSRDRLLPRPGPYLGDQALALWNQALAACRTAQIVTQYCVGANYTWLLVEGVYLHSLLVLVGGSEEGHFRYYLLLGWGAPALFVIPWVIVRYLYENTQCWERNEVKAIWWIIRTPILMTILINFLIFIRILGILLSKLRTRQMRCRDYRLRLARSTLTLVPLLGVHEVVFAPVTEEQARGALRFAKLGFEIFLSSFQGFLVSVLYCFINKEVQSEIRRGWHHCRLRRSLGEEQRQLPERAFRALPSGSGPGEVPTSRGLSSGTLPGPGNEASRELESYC
Description: (§1) After incubation, the cells were washed twice in ice-cold binding buffer (+/−2% HSA) and lysed using 200 mM NaOH with 1% SDS for 30 min. Nonspecific binding was determined as the binding of radioactive ligand to untransfected cells.

[2] = molecular target: T1, human GIP receptor; assay: 125I-hGIP competition binding, COS-7/hGIPR, 0.1% casein;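 further: nonspecific binding defined as radioligand binding measured on untransfected cells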
Description: as §1

[3] = molecular target: T1, human GIP receptor; assay: cell-based or functional assay
[4] = molecular target: T1, human GIP receptor; assay: 125I-hGIP competition binding, COS-7 cells expressing hGIPR;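 further: nonspecific binding taken as radioligand bound by untransfected cells, binding buffer with or without 2% HSA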
Description: as §1

[5] = molecular target: T1, human GIP receptor; assay: IC50 with 2% HSA over IC50 with 0.1% casein, 125I-hGIP competition, COS-7/hGIPR
Description: as §1

Binder	IC50 [1] [nM]	logIC50 [1] [log M]	IC50 [2] [nM]	logIC50 [2] [log M]	cAMP agonism [3] [nM]	cAMP agonism, EC50 (log) [3]	cAMP agonism, Emax [3]	cAMP antagonism [3] [nM]	cAMP antagonism, log [3] [log M]	IC50 [4] [nM]	log IC50 [4]	Fold change HSA (2%)/Casein (0.1%) [5] [fold]
TFISDYSIAMDKIHQQDK(C16 diacid)VNWLLAQK-NH2 (N-terminus assumed; SMILES CC[C@H](C)[C@H](NC(=O)[C@H](CO)NC(=O)[C@H](Cc1ccc(O)cc1)NC(=O)[C@H](CC(=O)O)NC(=O)[C@H](CO)NC(=O)[C@@H](NC(=O)[C@H](Cc1ccccc1)NC(=O)[C@@H](N)[C@@H](C)O)[C@@H](C)CC)C(=O)N[C@@H](C)C(=O)N[C@@H](CCSC)C(=O)N[C@@H](CC(=O)O)C(=O)N[C@@H](CCCCN)C(=O)N[C@H](C(=O)N[C@@H](Cc1c[nH]cn1)C(=O)N[C@@H](CCC(N)=O)C(=O)N[C@@H](CCC(N)=O)C(=O)N[C@@H](CC(=O)O)C(=O)N[C@@H](CCCCNC(=O)CCCCCCCCCCCCCCC(=O)O)C(=O)N[C@H](C(=O)N[C@@H](CC(N)=O)C(=O)N[C@@H](Cc1c[nH]c2ccccc12)C(=O)N[C@@H](CC(C)C)C(=O)N[C@@H](CC(C)C)C(=O)N[C@@H](C)C(=O)N[C@@H](CCC(N)=O)C(=O)N[C@@H](CCCCN)C(N)=O)C(C)C)[C@@H](C)CC) [AT182 [hGIP(5-30)NH2[F22K]-C16diacid/22]]	141	-6.9	47.9	-7.3	634	-6 log M	13	634	-6.2	962	-6 log M	3
TFISDYSIAMDKIHQQDFVNWK(C16 diacid)LAQK-NH2 (N-terminus assumed; SMILES CC[C@H](C)[C@H](NC(=O)[C@H](CO)NC(=O)[C@H](Cc1ccc(O)cc1)NC(=O)[C@H](CC(=O)O)NC(=O)[C@H](CO)NC(=O)[C@@H](NC(=O)[C@H](Cc1ccccc1)NC(=O)[C@@H](N)[C@@H](C)O)[C@@H](C)CC)C(=O)N[C@@H](C)C(=O)N[C@@H](CCSC)C(=O)N[C@@H](CC(=O)O)C(=O)N[C@@H](CCCCN)C(=O)N[C@H](C(=O)N[C@@H](Cc1c[nH]cn1)C(=O)N[C@@H](CCC(N)=O)C(=O)N[C@@H](CCC(N)=O)C(=O)N[C@@H](CC(=O)O)C(=O)N[C@@H](Cc1ccccc1)C(=O)N[C@H](C(=O)N[C@@H](CC(N)=O)C(=O)N[C@@H](Cc1c[nH]c2ccccc12)C(=O)N[C@@H](CCCCNC(=O)CCCCCCCCCCCCCCC(=O)O)C(=O)N[C@@H](CC(C)C)C(=O)N[C@@H](C)C(=O)N[C@@H](CCC(N)=O)C(=O)N[C@@H](CCCCN)C(N)=O)C(C)C)[C@@H](C)CC) [AT186 [hGIP(5-30)NH2[L26K]-C16diacid/26]]	331	-6.5	87.1	-7.1			0	79	-7.1	144	-6.8 log M and -6.84 log M	3.8
TFISDYSIAMDKIHQQDFK(C16 diacid)NWLLAQK-NH2 (N-terminus assumed; SMILES CC[C@H](C)[C@H](NC(=O)[C@H](CO)NC(=O)[C@H](Cc1ccc(O)cc1)NC(=O)[C@H](CC(=O)O)NC(=O)[C@H](CO)NC(=O)[C@@H](NC(=O)[C@H](Cc1ccccc1)NC(=O)[C@@H](N)[C@@H](C)O)[C@@H](C)CC)C(=O)N[C@@H](C)C(=O)N[C@@H](CCSC)C(=O)N[C@@H](CC(=O)O)C(=O)N[C@@H](CCCCN)C(=O)N[C@H](C(=O)N[C@@H](Cc1c[nH]cn1)C(=O)N[C@@H](CCC(N)=O)C(=O)N[C@@H](CCC(N)=O)C(=O)N[C@@H](CC(=O)O)C(=O)N[C@@H](Cc1ccccc1)C(=O)N[C@@H](CCCCNC(=O)CCCCCCCCCCCCCCC(=O)O)C(=O)N[C@@H](CC(N)=O)C(=O)N[C@@H](Cc1c[nH]c2ccccc12)C(=O)N[C@@H](CC(C)C)C(=O)N[C@@H](CC(C)C)C(=O)N[C@@H](C)C(=O)N[C@@H](CCC(N)=O)C(=O)N[C@@H](CCCCN)C(N)=O)[C@@H](C)CC) [AT183 [hGIP(5-30)NH2[V23K]-C16diacid/23]]	1700	-5.8	955	-6			0	1770	-5.8	7130	-5.1 log M	1.8
TFISDYSIAMDKIHQQDFVNWLK(C16 diacid)AQK-NH2 (N-terminus assumed; SMILES CC[C@H](C)[C@H](NC(=O)[C@H](CO)NC(=O)[C@H](Cc1ccc(O)cc1)NC(=O)[C@H](CC(=O)O)NC(=O)[C@H](CO)NC(=O)[C@@H](NC(=O)[C@H](Cc1ccccc1)NC(=O)[C@@H](N)[C@@H](C)O)[C@@H](C)CC)C(=O)N[C@@H](C)C(=O)N[C@@H](CCSC)C(=O)N[C@@H](CC(=O)O)C(=O)N[C@@H](CCCCN)C(=O)N[C@H](C(=O)N[C@@H](Cc1c[nH]cn1)C(=O)N[C@@H](CCC(N)=O)C(=O)N[C@@H](CCC(N)=O)C(=O)N[C@@H](CC(=O)O)C(=O)N[C@@H](Cc1ccccc1)C(=O)N[C@H](C(=O)N[C@@H](CC(N)=O)C(=O)N[C@@H](Cc1c[nH]c2ccccc12)C(=O)N[C@@H](CC(C)C)C(=O)N[C@@H](CCCCNC(=O)CCCCCCCCCCCCCCC(=O)O)C(=O)N[C@@H](C)C(=O)N[C@@H](CCC(N)=O)C(=O)N[C@@H](CCCCN)C(N)=O)C(C)C)[C@@H](C)CC) [AT187 [hGIP(5-30)NH2[L27K]-C16diacid/27]]	676	-6.2	144	-6.8	2380	-6 log M and -5.6 log M	25	2380	-5.6	26500	-4.6 log M and -4.58 log M	4.7
TFISDYSIAMDKIHQQDFVK(C16 diacid)WLLAQK-NH2 (N-terminus assumed; SMILES CC[C@H](C)[C@H](NC(=O)[C@H](CO)NC(=O)[C@H](Cc1ccc(O)cc1)NC(=O)[C@H](CC(=O)O)NC(=O)[C@H](CO)NC(=O)[C@@H](NC(=O)[C@H](Cc1ccccc1)NC(=O)[C@@H](N)[C@@H](C)O)[C@@H](C)CC)C(=O)N[C@@H](C)C(=O)N[C@@H](CCSC)C(=O)N[C@@H](CC(=O)O)C(=O)N[C@@H](CCCCN)C(=O)N[C@H](C(=O)N[C@@H](Cc1c[nH]cn1)C(=O)N[C@@H](CCC(N)=O)C(=O)N[C@@H](CCC(N)=O)C(=O)N[C@@H](CC(=O)O)C(=O)N[C@@H](Cc1ccccc1)C(=O)N[C@H](C(=O)N[C@@H](CCCCNC(=O)CCCCCCCCCCCCCCC(=O)O)C(=O)N[C@@H](Cc1c[nH]c2ccccc12)C(=O)N[C@@H](CC(C)C)C(=O)N[C@@H](CC(C)C)C(=O)N[C@@H](C)C(=O)N[C@@H](CCC(N)=O)C(=O)N[C@@H](CCCCN)C(N)=O)C(C)C)[C@@H](C)CC) [AT184 [hGIP(5-30)NH2[N24K]-C16diacid/24]]	11200	-5	7080	-5.2			0	91	-7	247	-6.6 log M	1.6
TFISDYSIAMDKIHQQDFVNK(C16 diacid)LLAQK-NH2 (N-terminus assumed; SMILES CC[C@H](C)[C@H](NC(=O)[C@H](CO)NC(=O)[C@H](Cc1ccc(O)cc1)NC(=O)[C@H](CC(=O)O)NC(=O)[C@H](CO)NC(=O)[C@@H](NC(=O)[C@H](Cc1ccccc1)NC(=O)[C@@H](N)[C@@H](C)O)[C@@H](C)CC)C(=O)N[C@@H](C)C(=O)N[C@@H](CCSC)C(=O)N[C@@H](CC(=O)O)C(=O)N[C@@H](CCCCN)C(=O)N[C@H](C(=O)N[C@@H](Cc1c[nH]cn1)C(=O)N[C@@H](CCC(N)=O)C(=O)N[C@@H](CCC(N)=O)C(=O)N[C@@H](CC(=O)O)C(=O)N[C@@H](Cc1ccccc1)C(=O)N[C@H](C(=O)N[C@@H](CC(N)=O)C(=O)N[C@@H](CCCCNC(=O)CCCCCCCCCCCCCCC(=O)O)C(=O)N[C@@H](CC(C)C)C(=O)N[C@@H](CC(C)C)C(=O)N[C@@H](C)C(=O)N[C@@H](CCC(N)=O)C(=O)N[C@@H](CCCCN)C(N)=O)C(C)C)[C@@H](C)CC) [AT185 [hGIP(5-30)NH2[W25K]-C16diacid/25]]	1150	-5.9	246	-6.6	44	-7 log M	18	44	-7.4	87	-7.1 log M	4.7
